# According to the nanobody polyreactivity screen of Harvey et al. (2022):
# Assay: yeast display, Sf9 membrane polyspecificity reagent, FACS + sequencing; frameworks hold sequencing errors
# Outline: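 Synthetic nanobody libraries on Saccharomyces cerevisiae BJ5465 were galactose-induced for 36–48 hours, stained 1 hour at 4 °C with 10% biotinylated, detergent-solubilized Sf9 membrane reagent and enriched on streptavidin microbeads. FACS then separated cells into low and high (top ~1%) gates by anti-HA (expression) and streptavidin (reagent binding) fluorescence. Genes were colony-PCR amplified, MiSeq 2 × 250 sequenced and CDR-length filtered. A clone's polyreactivity label is that of its gate of origin.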
row,Sequence,polyreactivity (PSR sort gate)
1,QVQLVESGGGLVQAGGSLRLSCAASGSIFKRNAMVSYRQAPGKERELVASISSGGSTHYADSVKGRFTISRDNAKNTVYLQMNSLTPEDTAVYYCAATSIRWSVCSFRRDYWGQGTQVTVSS,low polyreactivity
2,QVQLVESGGGLVQAGGSLRLSCAASGRIFTAYAMGWYRQAPGKERELVAAISSGDSTYYADSVKGRFTISRDNAKNTVYLQMNSLKPEDTAVYYCATGVYPDFEYDSWGQGTQVTVSS,low polyreactivity
3,QVQLVESGAGLVQAGGSLRLSCAASGSIFVYNDMGWYRQAPGKERELVAAITSSGGSTYYADSVKGRFTISRDNAKKTVYLQMNSLKPEDTAVYYCNVWDRPPTGYDYWGQGTQVTVSS,low polyreactivity
4,QVQLVESGGGLVQPGGSLRLSCAASGSIFIVYAMGWYRQAPGQERELVAGISVRTGSTYYADSVKGRFTISRDNAKNTGYLQMNSLKPEDTAVYYCAAPGYTGLGRNYWGQGTQVTVSS,low polyreactivity
5,QVQLVESGGGLVQAGGSLRLSCAASGSTFRANAMGWYRQAPGKERELVAAIRGTGSTYYADSVKGRFTISRDNAKNTVYLQMNSLKPEDTAVYYCAARPGYLYSKYNYWGQGTQVTVSS,high polyreactivity
6,QVQLVESGGGLVQAGGSLRLSCAASGSIFNYNAMGWYRQAPGKERELVAGITTSGGSTYYADSVKGRFTISRDNAKNTVYLQMNSLKPEDTAVYYCAAYDYISSTYFLDDYWGQGTQVTVSS,low polyreactivity
7,QVQLVESGGGLVQAGGTLRLSCAASGRTFDTNAMAWYRQAPGKERELVASITWVGGSTYYADSVKGRFTISRDNAKNTVYLQMNSLKPEDTAVYYCNRDRVSGGKYNYWGQGSQVTVSS,low polyreactivity
8,QVQLVESGGGLVQAGGSLRLICDASGSTFERYALGWYRQAPGKERELVAAITWGGGSTNYADSVKGRFTISRDNEKNTVYLQMNSLNPEDTAVYYCRPLYLGGDYWGQGTQVTVSS,low polyreactivity
9,QVQLQESVGGLVQAGGTLRLSCAGRGNIYTHQLYMGSYRQAPGKEIDFVAAINFGASPYYADSVKGRNTISRDNAKNTVYLLMNSLKPEDTAVYYCAADSAFYDEYQEDYWGQGTQVTLSS,low polyreactivity
10,QVQLVESGGGLVQAGGSLRLSCAASGSTFSGNVMGWYRQAPGKERALVAAIRRSSGSTYYADSVKGRFTISRDNAKNTVYLQMNSLKPEDTAVYYCATDVTKIRQGDYYYWGQGTQVTVSS,high polyreactivity
11,QVQLVESGGGLVQAGGSLRLSCAASGYIFRAYAMGWYRQAPGKERELVAAITKRSGTTYYADSVKGRFTISRDNAKNTVYLQMNSLKPEDTAVYYCAAKTLYNSGTQDRAMGYWGQGTQVTVSS,high polyreactivity
12,QVQLVESGGGLVQAGGSLRLSCAASGSIFRDYVMGWYRQAPGKERELVAAISGNDGSTYYADSVKGRFTISRDNAKNTVYLQMNSLKPEDTAVYYCNADEASTVPLFYSYLDFDYWGQGTQVTVSS,low polyreactivity
13,QVQLLESGGRLVQAGGSLRLSCAPSGFIFISYALGWYRQAPGKERELDAAIDWRGGSSTYYADSVKGRFTISRDNAKNTVYFPMISLKPEDTAVYYCAAEGVTWYLWDFYDFYGYWGQGTQVTVSS,high polyreactivity
14,QVQLVESGGGLVQAGGSLRLSCAASGRIFDFNAMGWYRQAPGKERELVAAITWSGTSTYYADSVKGRFTISRDNAKNTVYLQMNSLKPEDTAVYYCAVDYSPWWAFSYSDYYYWGQGTQVTVSS,high polyreactivity
15,QVQLVESGGGLVQAGGSLRLTCAASGLIFRRYAMGWYRQAPGKERELVAAINTSGGSTYYADSVKGRFTISRDNAKNTVYLQMNSLKPEDSAVSYCNTVSPYKYDWGKGTQVTVSS,low polyreactivity
16,QVQLVESGGGLVQAGGSLRLSCAASGRIFYSYAMGWYRQAPGKERELVAAISSAGSTYYADSVKGRFTISRDNAKNTVYLQMNSLKPEDTAVYYCAAGVTYYRYVSYVGPVPLGFDYWGQGTQVTVSS,high polyreactivity
17,QVQLVESGGGLVQAGGSLRLSCAASGRIFSHKAMGWYRQAPGKERELVAGISSGGGTTYADSVKGRFTISRDNAKNTVYLQMNSLKPEDTAVYYCNKQDQPVGRSGYPYGYDYWGQGTQVTVSS,low polyreactivity
18,QVQLLESGGGIVQAGGSLRLSCAASGRINAMGWYRQAPGKERELVAVITLRGGSTYYADSVKGRFTISRDNAKNTVYLQMNSLKPEYTAVYYCAAVYRWPDAKYDYWGQGTQVSVSS,low polyreactivity
19,QVQLVESGGGLVQAGGSLRLSCAASGRTFVGYAMGWYRQAPGKERELVAAISGSGVRTYYADSVKGRFTISRDNAKNTVYLQMNSLKPEDTAVYYCAVRQGWYNFRYDYWGQGTQVTVSS,high polyreactivity
20,QVHLVESGGGLVQAGGSLRLSCAASGSIFSWNAMGWYRQAPGKERELVAAISKRGTSTYYADSVKGRFTISRDNAKNTVYLQMNSLKPEDTAVYYCAARAQSYPYLSFDYWGQGTQVTVSS,high polyreactivity
21,QVQLVESGGGLVQAGGSLRLSCAASGRIFRFNAMGWYRQAPGKERELVAAITGSGGTTFYADSVKGRFTLSRDNAKNTVYLQMNSLKPEDTAVYYCNTLGNWRPVYNQPRYEYWGQGTQVTVSS,high polyreactivity
22,QVQLVESGGGLVQAGGSLRVSCAASGRIFDENAMGWYRPAPGKERELVAAIDWSGGSTYYADSVKGRFTISRDYAKNTVYLQMNRQKPEDTAVYYCNADYYYYVSLGWWSFIVSEYDYWGHGTQVTVSS,low polyreactivity

row,Sequence,polyreactivity (PSR sort gate)
1,QVQLVESGGGLVQAGGSLRLSCAASGFIFGLYDMGWYRQAPGKERELVARISWGGGTYYADSVKGRFTISRDNAKNTVYLQMNSLKPEDTAVYYCNTRTRGYYYNSYYWTKYGYWGQGTQVTVSS,high polyreactivity
2,QVQLVESVGGLVQAGGSLRLSCAASGSIFDSYAMGWYRQAPGKERELVADISSGGSTYYADSVKGRFTISRDNAKNTVYLQMNSLKPEDTAVYYCAAQYVYYFYGDEAFTDDYWGQGTQVTVSS,low polyreactivity
3,QVQLVESGGGLVQAGGSLRLSCAASGITFKPNTMGWYRQAPGKERELVAAIDWSGSSTYYADSVKGRFTISRDNAKNTVYLQMISLKPEDTAVYYCAADDYEYFWSYDYWGQGTQVTVSS,low polyreactivity
4,QVQLVESGGGLVQAGGSLRLSCAASGFTFVYYAMGWYRQAPGKERELVAAISRGGSTYYADSVKGRFTISRDNAKNTVYLQMNCLKPVDTAVYYCNAKKSGHYVSYPAYDYWGQGTQVTVSS,low polyreactivity
5,QVQLVESGGGLVQAGGSLRLSCAASGRIFDNYVMGWYRQAPGKERELVAAISSGGGTYYADSVKGRFTISRDNAKNTVYLQMNSLKPEDTAVYYCAKRRVYDRSFGRYDYCGQGTQVTVSS,low polyreactivity
6,QDQLLESGGGLVQAGGSLRLSCAASGSILQDYAMGWYRQAPGKERELVAAISNSGDSTYYADSLKGRFTISRENAKTTVYLQLNSLKPEDTAVYYCNAAVYPYAMYSGGLDYDYWGHGTQVTVSS,low polyreactivity
7,QVHHVESGGGLVQAGGSLRLSCAASGLILVPNTMGWYRQAPGKERELVAAISYSGGGTYYADSVKGRFTISRDNAKNNVYLQMNSLKPEDTAVYYCAAYVKRESAPYGYWGQGTQVTVSS,low polyreactivity
8,QVQLVESGGGLVQAGGSLRLSCAASGSTFDPYGMGWYRQAPGKERELVAAITSSGRTNYADSVKGRFTISRDNAKNTVYFQMNSLKPEDTAVYYCATRKERYFYRCYEYWGQGTQVTVSS,low polyreactivity
9,QVQLVESGAGLVQAGGSLRLSCAASGSTFSHNAMGWYRQEPGKESELVAAISWSGGGTYADSVKGRFTISRDNAKNTVYLQMNSLIPEDTAVYYCNKVSYPSTSSSWFDYWGKGTQVTVSS,low polyreactivity
10,QVQLVESGGGLGQAGGSLRLSCAASGGTFYYYAMGWSRQAPGKERELVAAITESGGSTYYGDSVKGRFTISRDNAKNTVNLQMNSLKPEDTAVYYCAAETYYGDDGYWGQGTQVTVSS,low polyreactivity
11,QVQLVESGGGLVQAGGSLRLSCAASGSIFPPYAIGSYRQAPGKERELVATITIRGGSTYYADSVKGRFTISRDNAKNTVYLQMNSLKPEDTAVYYCAADYTKYYRRYYYWGQGTQVTVSS,high polyreactivity
12,QVQLVESGGGLVQAGGSLRLSCAASGSIFPFNAMGWYRPAPGKERELVAAITSGGSTNYADSVKGRFTISRDNAKNTVYFQMNSLKPEDTAVYYCAADWRYWRWAFDYWGQGTQVTVSS,high polyreactivity
13,QVQLVESGGGLVQAGGSLRLSCAASGFTFTLNTMGWYRQAPGKERELVAAISSGGRTYYADSVKGRFTISRDNAKNTVYLQMNSLKPEDTAVYYCAADYTWRFLRFGYWGQGTQVTVSS,high polyreactivity
14,QVQLVESGGGLVQAGCSLRLSCAASGRIFYLYTLGWYRQAPGKERELVAAITRAGRTYYADSVKGRFTISRDNAKNTFYLQMNSLKPEDTGVYYCAAAFLSRVQGYDSWGQGTQVTVSS,high polyreactivity
15,QVQLVESGGGLVQAGGSLRLRCAATGFIFSSYAMGWYRQAPGKERELVAAINRSGSTYYADSVKGRFTISRDNAKNTVYLQMNSLKPEDTADYYCNARRYYYRYRNYDYWGQGTQVTVSS,high polyreactivity
16,QVQLVESGGGLVQAGGSLRLSCAASGRIFGYNAMGWYRPAPGKEREVVAAISWNGGSTYYADSVKGRFTISRDNAKNTVYLQMNSLKPEDTAVYYCNADPSDRRYPHTWTKMGYWGQGTQVTVSS,low polyreactivity
17,QFQLVESGGGLVQAGGSLRLSCAASGSIFIYYAMGWYRQAPGKEREFVAAITRSGGSTFYADSVKGRFTISRDNAKNTVYLQMNSLKPEDTAVYYCATSYEGYYSIIGNKYDYWGQGTQVTVSS,high polyreactivity
18,QVQLVESGVGLVQAGGSLRLSCAASGRIFEDNAMGWYRQAPGKERELVAAIDFSGGDTYYADSVKGRFTISRDNAKNTVYLQMYSLKPEDTAVYYCAAGRSGWGYVSWGQGTQVTVSS,low polyreactivity
19,QVQLVESGGGLVQAGGSLRLSCAASGRTFRYYAMGWYRQPPGKERELVAAISISGGNTYYADSVKGRFTISRDNAKNTVYLQMNSLKPEDTAVYYCAAAGRGSGYDYWGQGTQVTVSS,high polyreactivity
20,QVQLVESGGGLVQAGGSLRLSCAASGSIFYYNAMGWYRQEPGKERELVATITSAVSTNYADSVKGRFTISRDNAKNTVYLQMNSLKPEDTAVYYCATVYSLSFELDYWGQGTQVTVSS,low polyreactivity
21,QVQLVESGGGLVQAGGSLRLSCAASGSIIYHYAMGWYRQAPGKERELVAAITSSGGSTYYADSVKGRFTISRDNAKNTVYLQMNSLKPEDTEVYYCAVESRGRAGGNYWGQGTQVTVSS,low polyreactivity
